Laboratory results from patent US20140045930A1, “ASSAY FOR ARGINYL HYDROXYLASE ACTIVITY” (priority 2011, published 2014).

How the values were obtained:
Format in all cases: biochemical
[1] = target: T1, YcfD (Escherichia coli, UniProt P27431)
T1 construct: hexa-His (N); made in house; host or cells: E. coli BL21 (DE3), pET28a
T1 sequence (P27431 1-373): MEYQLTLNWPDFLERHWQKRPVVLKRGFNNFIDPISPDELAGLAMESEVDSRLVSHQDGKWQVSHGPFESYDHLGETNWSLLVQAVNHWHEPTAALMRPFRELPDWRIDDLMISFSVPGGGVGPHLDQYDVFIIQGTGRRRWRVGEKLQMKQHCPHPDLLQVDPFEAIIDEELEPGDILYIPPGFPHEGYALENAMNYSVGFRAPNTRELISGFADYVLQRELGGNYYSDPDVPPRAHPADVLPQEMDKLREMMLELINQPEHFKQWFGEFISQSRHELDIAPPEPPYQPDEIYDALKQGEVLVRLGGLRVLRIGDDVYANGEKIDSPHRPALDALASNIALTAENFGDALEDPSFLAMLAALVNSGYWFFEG

[2] = target: T1, YcfD; test: NMR analyses of YcfD-catalysed hydroxylation; settings: for hydroxylation by YcfD observed by 1H NMR: 1H NMR analyses (data not shown)
Text: NMR-analyses used a Bruker AVIII 700 system equipped with an inverse TCI cryoprobe optimised for ^1H observation and running TOPSPIN 2 software. Chemical shifts are reported in ppm relative to D2O (δH 4.72); the deuterium signal was used as an internal lock signal and the HDO signal was reduced by presaturation where necessary.
(§1) Using a mass spectrometric (MS) based assay, we then screened YcfD with 21 known peptide fragments of substrates for three human 2OG dependent hydroxylases (PHD2, FIH, JMJD6), that encompasses known hydroxylation sites, including the HIF-1α N- and C-terminal oxygen dependent degradation domain (prolyl-hydroxylation), the HIF-1α C-terminal transcriptional activation domain (asparaginyl hydroxylation), ankyrin repeat domain peptides (asparaginyl hydroxylation), splicing regulatory protein fragments (lysyl5-hydroxylation), and collagen proyl-hyroxylase peptides. […] We then screened other available peptides including a set originally prepared for candidate hydroxylases from Pseudomonas spp., that are potential homologues of the human HIF prolyl-hydroxylases. […] MS-fragmentation analyses, unexpectedly, implied that the predicted hydroxylation occurred at the arginine-residue (Arg-12) at the -3position relative to the C-terminus of the substrate peptide (data not shown). This proposal was supported by ‘alanine scanning’ analyses hydroxylation was assessed for peptides in which substitution of alanine at every position in turn of RLLPAVSEATIRRL. […] We then employed NMR to investigate the regiochemistry of arginine-hydroxylation, employing an octameric peptide (AVSEATIR) containing a single arginine residue to simplify the analyses. This octameric peptide is set out in SEQ ID NO: 12. […] This contrasts with nitric oxide synthase which catalyses hydroxylation of L-arginine to give citrulline and nitric oxide via an Nω-hydroxyarginine intermediate.

[3] = target: T1, YcfD; test: Hydroxylation assay by MALDI-TOF MS (peptide substrates, +16 Da mass shift); settings: for % hydroxylation (+16 Da): peptide substrate incubated with YcfD, +16Da mass shift on products
Method: Assay mixtures (final volume 100 μL in 50 mM Tris-HCl, pH 7.5) contained: enzyme (10 μM), substrate (100 μM), 2OG (160 μM), Fe(II) (200 μM) and ascorbate (2 mM). The reaction mixture was incubated at 37° C. for 30 minutes. The reaction mixture was then placed on ice, 10 μl of 1% formic acid was added to quench the reaction, and the mixture was centrifuged to separate any insoluble material that precipitated during quenching. The resultant soluble mixture (1 μl) and α-cyano-4-hydroxycinnamic acid (CHCA) matrix solution (1 μl) (LaserBio Labs) were double spotted onto a 96 well MALDI sample plate, and when dry analysed using MALDI-TOF MS on a Waters Micromass™ MALDI micro MX™ mass spectrometer in negative ion reflectron mode.
as §1
Based on the identified peptide substrates for YcfD, we searched the E. coli genome for potential substrates and made a set of peptides. Screening for YcfD activity identified a number of further potential substrate sequences as observed by a +16Da mass shift on products. Examples of the peptide substrates are set out in the Table below.

| Molecule | % hydroxylation (+16 Da) [3] [%] | also measured |
| --- | --- | --- |
| O=C(O)c1c[nH]c2c(ccc3cccnc32)c1=O [FG0041] | – | inhibition of YcfD argininyl hydroxylase activity [1]: inhibitory |
| O=C(O)CNC(=O)c1nc(Cl)c2ccccc2c1O [FG2216] | – | inhibition of YcfD argininyl hydroxylase activity [1]: inhibitory |
| N=C(N)NCCC[C@H](N)C(=O)O [L-arginine] | – | hydroxylation by YcfD observed by 1H NMR [2]: No hydroxylation |
| O=C(O)CNC(=O)C(=O)O [N-oxalylglycine] | – | inhibition of YcfD argininyl hydroxylase activity [1]: inhibitory |
| CC(=O)N[C@@H](CCCNC(=N)N)C(=O)O [N-α-acetyl-L-arginine] | – | hydroxylation by YcfD observed by 1H NMR [2]: No hydroxylation |
| O=C(O)/C=C/C(=O)O [fumarate] | – | inhibition of YcfD argininyl hydroxylase activity [1]: inhibitory |
| O=c1c(-c2ccc(O)cc2)coc2cc(O)cc(O)c12 [genistein] | – | inhibition of YcfD argininyl hydroxylase activity [1]: inhibitory |
| O=C(O)c1ccnc(C(=O)O)c1 [pyridine-2,4-dicarboxylic acid] | – | inhibition of YcfD argininyl hydroxylase activity [1]: inhibitory |
| O=C(O)c1ccc(C(=O)O)nc1 [pyridine-2,5-dicarboxylic acid] | – | enhancement of YcfD activity [1]: Enhancers of YcfD activity |
| O=C(O)c1cccc(C(=O)O)n1 [pyridine-2,6-dicarboxylic acid] | – | enhancement of YcfD activity [1]: Enhancers of YcfD activity |
| O=C(O)CCC(=O)O [succinate] | – | inhibition of YcfD argininyl hydroxylase activity [1]: inhibitory |
| AQYPQEVITTVRG [synthetic peptide, protein origin PhoP] | 60 | – |
| ATVAKCVEALKERFQASLRD [synthetic peptide, protein origin PheT] | 40 | – |
| AVSEATIR [octameric peptide containing a single arginine residue] | – | position of hydroxylation ([2]; 2D-NMR after incubation with YcfD and HPLC purification): at C-3 of the hydroxylated arginine-residue |
| ELNREQKWQMMLSKSMRR [synthetic peptide, protein origin CaiF] | 40 | – |
| KHVQALDLSMRFR [synthetic peptide, protein origin Nicotinate-nucleotide diphosphorylase] | 30 | – |
| KLLRLFFPLSLRV [synthetic peptide, protein origin PhoQ] | 60 | – |
| KTPLAVLQSTLRS [synthetic peptide, protein origin PhoQ] | 95 | – |
| KTPLAVLQSTLRSLR [synthetic peptide, protein origin PhoQ] | 40 | – |
| KWQMMLSKSMRR [synthetic peptide, protein origin CaiF] | 30 | – |
| LAVLQSTLRSLRS [synthetic peptide, protein origin PhoQ] | 60 | – |
| LLRLFFPLSLRV [synthetic peptide, protein origin PhoQ] | 50 | – |
| LTELNREQKWQMMLSKSMRR [synthetic peptide, protein origin CaiF] | 40 | – |
| LTHSLKTPLAVLQSTLRS [synthetic peptide, protein origin PhoQ] | 90 | – |
| NTHRGMGYSLRGL [synthetic peptide, protein origin CreB] | 30 | – |
| RLLPAVSEATIRRL [14-residue synthetic peptide originally prepared for candidate hydroxylases from Pseudomonas spp; YcfD substrate] | – | hydroxylation by YcfD (+16Da mass shift) ([3]; MS based assay, Fe(II) and 2OG dependent): gave a +16Da mass shift |
| VAKCVEALKERFQASLRD [synthetic peptide, protein origin PheT] | 50 | – |
| VEALKERFQASLRD [synthetic peptide, protein origin Phenylalanyl-tRNA synthetase] | 40 | – |
